According to paper PMC5737501:
Read-outs that look alike come from different tables or passages of the source.

Legend:
Assay in all cases: single-molecule TIRF colocalisation imaging
[1] = molecular target: H3K9me3 chromatin fiber, 12 × 601 array with 177 bp nucleosome repeat length (a177) (human) (UniProt P62805)
[2] = molecular target: H3K9me3 chromatin fiber, 12 × 601 array with 177 bp nucleosome repeat length (a177) (human) (UniProt P62805); remark: listed apart in the source
[3] = molecular target: H3K9me3 and H4KS16ac chromatin fiber, 12 × 601 array with 177 bp NRL (a177) (human) (UniProt P62805)
[4] = molecular target: H3K9me3 chromatin fiber, 12 × 601 array with 197 bp nucleosome repeat length (a197) (human) (UniProt P62805)
[5] = molecular target: H3K9me3 and H4KS16ac chromatin fiber, 12 × 601 array with 197 bp NRL (a197) (human) (UniProt P62805)

Chain of HP1α, labeled with Atto532 at its C-terminus (P45973 whole entry): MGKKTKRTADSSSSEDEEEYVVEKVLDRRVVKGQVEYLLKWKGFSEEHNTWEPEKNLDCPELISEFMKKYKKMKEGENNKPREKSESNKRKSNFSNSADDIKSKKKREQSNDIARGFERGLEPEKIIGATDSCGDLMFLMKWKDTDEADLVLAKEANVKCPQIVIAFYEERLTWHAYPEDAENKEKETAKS
Chain of Phosphorylated HP1α (pHP1α), Atto532-labeled, phosphorylated with casein kinase 2 (P45973 whole entry): as above
Chain of HP1γ, labeled with Atto532 at its C-terminus (Q13185 whole entry): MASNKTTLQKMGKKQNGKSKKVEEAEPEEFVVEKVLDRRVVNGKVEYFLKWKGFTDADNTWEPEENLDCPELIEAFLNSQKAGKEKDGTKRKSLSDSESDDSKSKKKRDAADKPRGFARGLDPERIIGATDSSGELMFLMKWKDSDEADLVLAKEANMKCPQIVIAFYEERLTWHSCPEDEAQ
Chain of HP1β, labeled with Atto532 at its C-terminus (P83916 whole entry): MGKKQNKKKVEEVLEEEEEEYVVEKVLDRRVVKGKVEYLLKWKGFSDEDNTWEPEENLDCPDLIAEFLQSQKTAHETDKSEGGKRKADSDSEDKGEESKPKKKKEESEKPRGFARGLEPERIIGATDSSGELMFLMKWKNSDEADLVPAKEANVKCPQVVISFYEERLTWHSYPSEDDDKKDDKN

HP1α, labeled with Atto532 at its C-terminus (from UniProt P45973 1-191) (natural protein)
kon [1]: 360000 M⁻¹ s⁻¹
tau off,1 (residence time, fast phase) [1]: 0.14 s
tau off,2 (residence time, slow phase) [1]: 2.97 s
kon [2]: 1.1e+06 M⁻¹ s⁻¹
tau off,1 (residence time, fast phase) [2]: 0.19 s
tau off,2 (residence time, slow phase) [2]: 3.32 s
kon [3]: 2.76e+06 M⁻¹ s⁻¹
tau off,1 (residence time, fast phase) [3]: 0.19 s
tau off,2 (residence time, slow phase) [3]: 1.92 s
kon [4]: 2.51e+06 M⁻¹ s⁻¹
tau off,1 (residence time, fast phase) [4]: 0.24 s
tau off,2 (residence time, slow phase) [4]: 2.49 s
kon [5]: 2.25e+06 M⁻¹ s⁻¹
tau off,1 (residence time, fast phase) [5]: 0.16 s
tau off,2 (residence time, slow phase) [5]: 2 s

HP1β, labeled with Atto532 at its C-terminus (from UniProt P83916 1-185) (natural protein)
kon [2]: 670000 M⁻¹ s⁻¹
tau off,1 (residence time, fast phase) [2]: 0.19 s
tau off,2 (residence time, slow phase) [2]: 3.6 s

HP1γ, labeled with Atto532 at its C-terminus (from UniProt Q13185 1-183) (natural protein)
kon [2]: 890000 M⁻¹ s⁻¹
tau off,1 (residence time, fast phase) [2]: 0.17 s
tau off,2 (residence time, slow phase) [2]: 2.64 s

Phosphorylated HP1α (pHP1α), Atto532-labeled, phosphorylated with casein kinase 2 (from UniProt P45973 1-191) (natural protein)
kon [2]: 1.73e+06 M⁻¹ s⁻¹
tau off,1 (residence time, fast phase) [2]: 0.26 s
tau off,2 (residence time, slow phase) [2]: 5.6 s
